Measured values: publication PMC12408736

System: Rap1 (Naumovozyma castellii)
Test: competition EMSA
Details: labeled N1 probe, 10 mM Tris-HCl pH 7.5, 7 mM MgCl2, 8% glycerol, 10 fmol probe in 15 µl, ~0.6 µg Rap1 extract, 1.5 µg non-specific competitor (E. coli DNA, salmon sperm DNA …); for binding signal: 400x competitor, scale: fold shifted probe remaining vs telomeric competitor

Sequence	binding signal	binding signal (fold shifted probe remaining (reference)) (unlabeled N1 as competitor)
AAGATTTGTATAGTCTGGGTAATGTATGTCAT (double strand) [ST-3]	91	–
AAGGATAGTTGGTCTGGGTGAGGATATTCTGTT (double strand) [ST-1]	60	–
GTCTGGGTGTCTGGGTGTC (double strand) [telomeric ds-probe (19 bp)]	–	1
GTGTCGTTAGGTACGGAGGGTGTTGTTTGGAATATG (double strand) [ST-4]	33	–
TGTTGTTGATGGTGGTGTTGTTTTTTTGTC (double strand) [ST-2]	66	–
